target: HLA-A*01:01; experiment: IEDB peptide-MHC binding, purified MHC/direct/fluorescence; filed as Kd, often an IC50 or EC50 that approximates it; ≥ and ≤ were set here for values at or beyond the usual limits of such assays; conditions: source organism: West Nile virus

| Sequence | Kd [nM] |
| --- | --- |
| ITYTDVLRY | 3 |
| QTDNQLAVF | 168 |
| MTKEEFTRY | 246 |
| VVEKQSGLY | 6 |

target: HLA-A*02:01; experiment: as above; conditions: source organism: West Nile virus

| Sequence | Kd [nM] |
| --- | --- |
| TLARGFPFV | 3 |
| RLARAIIEL | 3 |
| SLFGGMSWI | ≤ 1 |
| ILLWEIPDV | ≤ 1 |
| GMSWITQGL | ≤ 1 |
| FLAVGGVLL | 3 |
| VLCPYMPKV | 21 |

target: HLA-A*03:01; experiment: as above; conditions: source organism: West Nile virus

| Sequence | Kd [nM] |
| --- | --- |
| VLRKRWTAK | 43 |
| MVGVGSLVK | 380 |
| VLWDTPSPK | 117 |
| LTYRHKVVK | 94 |
| VLSLIGLKR | 481 |
| GLYKSAPRR | 37 |

target: HLA-A*24:03; experiment: as above; conditions: source organism: West Nile virus

| Sequence | Kd [nM] |
| --- | --- |
| WFMWLGARF | 10 |
| LYAVTTAVL | 8 |
| RFVLALLAF | 176 |
| EYVGKTVWF | 26 |
| RYLVKTESW | 4 |
| TYGVCAKAF | 13 |
| WYDWQQVPF | 7 |
| SYHDRRWCF | 9 |
| SYTLKLGEY | 143 |
| WMILRAISF | 120 |
| GYISTRVEL | 45 |

target: HLA-A*26:01; experiment: as above; conditions: source organism: West Nile virus

| Sequence | Kd [nM] |
| --- | --- |
| FCIKVLCPY | 314 |
| ETTNWLWTF | 5 |
| ETTNWLWAF | 2 |
| HTTKGAALM | 23 |
| DTITNVTTM | 4 |
| EVMTAVGLM | 5 |
| MTRGLLGSY | 8 |

target: HLA-B*07:02; experiment: as above; conditions: source organism: West Nile virus

| Sequence | Kd [nM] |
| --- | --- |
| IPTAAGKNL | 150 |
| GGRAHRMAL | 63 |
| QPAFMVASF | 71 |
| RPAVGGKTV | 36 |
| RVYSDHQAL | 205 |
| HSRRSRRSL | 47 |
| RVIDSRKSV | 97 |
| RPAADGKTV | 97 |

target: HLA-B*08:01; experiment: as above; conditions: source organism: West Nile virus

| Sequence | Kd [nM] |
| --- | --- |
| FTRYRKEAI | 39 |
| MLRKKQITV | 35 |
| ILRNPGYAL | 483 |
| KIRNRIERL | 254 |

target: HLA-B*15:01; experiment: as above; conditions: source organism: West Nile virus

| Sequence | Kd [nM] |
| --- | --- |
| LLLLVAPAY | 87 |
| KVAAAGVSY | 165 |
| VIQLNRKSY | 105 |
| AMFEEQNQW | 17 |
| GVIMPNGSY | 29 |
| TVSPSAPTY | 68 |
| LMNDPGAPW | 40 |
| LLVAPAYSF | 137 |
| YQPEREKVY | 80 |

target: HLA-B*27:05; experiment: as above; conditions: source organism: West Nile virus

| Sequence | Kd [nM] |
| --- | --- |
| RRFLEPVGK | 50 |
| RRSRRSLTV | 385 |
| GRMEKKTWK | 103 |
| RRLAATTEK | 37 |
| GRLVTVNPF | 75 |
| RRYGGGLVR | 62 |
| LRWLVERRF | 98 |
| RRWCFDGPR | 11 |

target: HLA-B*39:01; experiment: as above; conditions: source organism: West Nile virus

| Sequence | Kd [nM] |
| --- | --- |
| TRAVGKPLL | 141 |
| GRGPIRFVL | 162 |
| YTMDGEYRL | 154 |
| FVDVGVSAL | 52 |

target: HLA-B*40:01; experiment: as above; conditions: source organism: West Nile virus

| Sequence | Kd [nM] |
| --- | --- |
| NEVEVITKL | 80 |
| VEGLGLQKL | 230 |
| REDIWCGSL | 7 |
| REWFMDLNL | 9 |
| KENGVDLSV | 3 |
| QEGALHQAL | 14 |
| AEVEEHRTV | 130 |
| WEALDTMYV | 27 |
| RESFGVESF | ≤ 1 |
| REHSGNEIV | ≤ 1 |
| NEAKVLELL | 28 |

target: HLA-B*58:01; experiment: as above; conditions: source organism: West Nile virus

| Sequence | Kd [nM] |
| --- | --- |
| VSRLEHQMW | 56 |
| KSFLVHREW | 11 |
| RAWNSGYEW | 16 |
| GSRAIWFMW | 87 |
| LAVSAYTPW | 11 |
| ISGKSTDMW | 91 |
| RVLEMVEDW | 4 |
| LAALGDTAW | 66 |
| KSYAQMWLL | 8 |
